The supplement of paper PMC9732359
± gives the uncertainty stated by the source.

Assay: protein stability index of a GFP-peptide fusion (yeast GPS) (PSI 1-4); higher = more stable; sorted into four equal gates, so the index is relative within each strain
Outline: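 Plasmids in a pooled yeast library fused tiled 17-residue yeast protein peptides downstream of GFP and also expressed Cherry. Mid-log cultures grown without leucine were sorted into four equal gates by GFP/Cherry fluorescence ratio. Each gate's plasmids were PCR-amplified and Illumina-sequenced, and reads were matched to strains by barcodes. The protein stability index is derived by multiplying each gate's read frequency by its gate number and summing the results.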

| Sequence | protein stability index (doa10∆) | protein stability index (pdr5∆) | protein stability index (san1∆) | protein stability index (ubr1∆) |
| --- | --- | --- | --- | --- |
| HNSHLSLNYKFTTNKSK [SRP21] | 2.46 ± 0.073 | 2.07 ± 0.052 | 2.38 ± 0.076 | 2.41 ± 0.05 |
| KYVHVSEVGNCSGSGMG [FAS2] | 2.88 ± 0.055 | 3.08 ± 0.058 | 2.92 ± 0.051 | 2.92 ± 0.041 |
| EENEDNDGNNRTNNVPM [NUT1] | 3.11 ± 0.12 | 3.39 ± 0.11 | 3.31 ± 0.16 | 3.56 ± 0.089 |
| MLSAHNIIESIANFSRA [YJR042W/NUP85] | 2.31 ± 0.074 | 2.43 ± 0.063 | 2.87 ± 0.048 | 2.48 ± 0.036 |
| MQEKAAHIAKNLINLSI [YCS4] | 2.15 ± 0.15 | 1.55 ± 0.2 |  | 1.46 ± 0.093 |
| IVPLHSPFLMGHPMTKS [SEC65] | 2.76 ± 0.083 | 2.57 ± 0.07 | 2.57 ± 0.079 | 2.79 ± 0.055 |
| KLHEFYLLISKENKKRK [IRR1] | 2.96 ± 0.081 | 2.65 ± 0.066 | 2.89 ± 0.051 | 3.04 ± 0.067 |
| KRVVVPQALRVLRLKPG [RPL16A] | 3.05 ± 0.087 | 3.11 ± 0.1 | 3.15 ± 0.056 | 2.09 ± 0.12 |
| GVAMNPVDHPHGGGNHQ [RPL2A] | 2.9 ± 0.27 |  |  | 3.25 ± 0.14 |
| LYENIASSPIILEEGSS [RPN10] | 2.2 ± 0.04 | 2.37 ± 0.047 | 2.35 ± 0.06 | 2.35 ± 0.036 |
| DFELAVGKVMNKNQETA [RPT6] | 2.37 ± 0.21 |  |  |  |
| DYGEEIKSGVAKLESLL [MTW1] | 3.26 ± 0.24 | 3.11 ± 0.12 | 3.37 ± 0.13 | 3.4 ± 0.087 |
| SRYEPKVFDCGDNIVMS [PRE7] | 2.49 ± 0.12 | 2.78 ± 0.11 | 2.89 ± 0.11 | 2.06 ± 0.23 |
| SSDAFEVDVCDKCGLMG [RET1] | 2.38 ± 0.18 | 2.59 ± 0.11 | 2.33 ± 0.19 | 2.12 ± 0.11 |
| EKVTIAPLVLLSALDHY [RPN8] | 1.62 ± 0.033 | 1.63 ± 0.031 | 1.42 ± 0.06 | 1.48 ± 0.029 |
| LASKIKQYERLRFYKDT [RRI1] | 2.63 ± 0.068 | 2.52 ± 0.062 | 1.97 ± 0.077 | 2.19 ± 0.08 |
| QGDGLLTKLQKYGAAVR [RPN7] | 2.93 ± 0.17 | 2.89 ± 0.14 | 3.17 ± 0.12 | 3.28 ± 0.19 |
| VSPNISSASPSALTSPT [SIR3] | 2.45 ± 0.056 | 2.78 ± 0.074 | 2.95 ± 0.06 | 2.53 ± 0.04 |
| VSNRVAAPARAGAVAPE [RPP0] | 2.06 ± 0.11 | 2.54 ± 0.097 | 2.64 ± 0.11 | 2.56 ± 0.17 |
| RFPETMDETQTRAKIGG [RPO21] | 3.17 ± 0.26 |  | 2.69 ± 0.24 | 3.42 ± 0.13 |
| RLIDLSGCENITDKTIE [GRR1] | 3.05 ± 0.068 | 3.21 ± 0.093 | 2.85 ± 0.079 | 2.88 ± 0.093 |

| Sequence | protein stability index (doa10∆) | protein stability index (pdr5∆) | protein stability index (san1∆) | protein stability index (ubr1∆) |
| --- | --- | --- | --- | --- |
| SLASCLRSTEYSKSFEQ [POP1] | 2.58 ± 0.11 | 2.88 ± 0.13 | 2.89 ± 0.083 | 2.76 ± 0.12 |
| LSSIAERVRNFAVIYLC [DIB1] | 1.51 ± 0.083 | 2.04 ± 0.11 | 1.71 ± 0.11 | 1.88 ± 0.12 |
| NVMLNIYPRTVIDIEIH [SKI6] | 1.35 ± 0.039 | 1.74 ± 0.046 | 1.58 ± 0.11 | 1.76 ± 0.034 |
| ASLTAARTAANSIYCPT [RPN6] | 2.53 ± 0.19 | 2.66 ± 0.1 | 2.84 ± 0.093 | 2.49 ± 0.045 |
| TPLSIKIMVAEWYLSHL [SRB8] | 2.83 ± 0.084 | 2.59 ± 0.095 | 2.18 ± 0.092 | 2.5 ± 0.063 |
| GSADIGASVISLTKDKS [SIR4] | 3.01 ± 0.086 | 3.12 ± 0.067 | 2.92 ± 0.084 | 3.21 ± 0.052 |
| ETRAELSQLCAVPLQIV [RPO21] | 1.96 ± 0.087 | 2.32 ± 0.14 | 2.24 ± 0.21 | 2.71 ± 0.19 |
| QQDQPEQSEQPEQHQDK [RPN10] | 3.04 ± 0.059 | 3.14 ± 0.054 | 2.83 ± 0.048 | 3.13 ± 0.058 |
| GPSIYKTDPAGYYVGYK [SCL1] | 3.17 ± 0.092 | 3.4 ± 0.08 | 3.33 ± 0.059 | 3.38 ± 0.091 |
| KGRYAPETGDHVVGRIA [RRP4] | 3.03 ± 0.08 | 3.21 ± 0.08 | 2.6 ± 0.11 | 2.67 ± 0.11 |
| DEADKMIDLGFEDQVTN [PRP28] | 3.16 ± 0.098 | 3.34 ± 0.11 | 3.16 ± 0.11 | 3.1 ± 0.061 |
| YGFSNKEYISRLWHTLK [SNF5] | 1.57 ± 0.098 | 2.56 ± 0.21 | 2.39 ± 0.2 | 1.19 ± 0.13 |
| QLKHTKLALAENDTNMN [SMC4] | 3.13 ± 0.079 | 3.12 ± 0.097 | 3.25 ± 0.07 | 3.17 ± 0.048 |
| NFPEASKLSEHLNHYIL [YCG1] | 2.53 ± 0.29 | 2.51 ± 0.11 | 2.66 ± 0.17 | 2.53 ± 0.09 |
| TPATIVKKPTFTFGQST [YOR098C/NUP1] | 2.84 ± 0.066 | 3.13 ± 0.074 | 3.09 ± 0.058 | 3.43 ± 0.075 |
| SSKLVDVYTLPSYVHFK [YML103C/NUP188] | 1.82 ± 0.047 | 1.61 ± 0.046 | 1.69 ± 0.061 | 1.46 ± 0.036 |
| KGKDFEITAKEVYDFTH [FAS1] | 3.09 ± 0.059 | 3.23 ± 0.055 | 2.97 ± 0.052 | 3.05 ± 0.046 |
| LTSPAFGPHVDVNDVLT [GRR1] | 3.4 ± 0.085 | 3.23 ± 0.062 | 3.35 ± 0.063 | 3.27 ± 0.056 |
| PYMNHKNTSSMDFLNSM [GAL11] | 1.87 ± 0.056 | 1.69 ± 0.055 | 2.48 ± 0.089 | 3.04 ± 0.044 |
| GLWGFSTATRNVTMIDD [COR1] | 3.18 ± 0.083 | 3.1 ± 0.08 | 3.02 ± 0.064 | 2.85 ± 0.066 |
